Read-outs that look alike come from different tables or passages of the source.
Experiments:
crystal structure [1] = target: the molecule itself; assay: crystal structure
crystal structure [2] = target: the molecule itself; assay: crystal structure; remark: listed apart in the source

| Protein | stoichiometry N (crystal structure [1]) | stoichiometry N (crystal structure [2]) |
| --- | --- | --- |
| BBH37_(131-312) (domain or fragment, B. burgdorferi B31, UniProt O50692 131-312, looked up, Cys165 in a disulfide bond with Cys165 of the other protomer) FFPSTEEEKQADKAIKDIENLIGESGFPELIENVCSLKHEYTLIRSDFYDVITKIQNKKISLMKNSHNNRNKIRELVQLQNNLKIGDELDKIMGCIDTAEQEIRSAAFFFDEAKESLKEGIIKRLEKSKNRAASQLSKKALNRAEDALRCLENYSSKKGEAIGRRSFIKEVVEQAKNALSKS | 2 |  |
| BBH37_(119-312) (domain or fragment, B. burgdorferi B31, UniProt O50692 119-312, looked up, Cys165 in a disulfide bond with Cys165 of the other protomer) EHNQKKEIKEEDFFPSTEEEKQADKAIKDIENLIGESGFPELIENVCSLKHEYTLIRSDFYDVITKIQNKKISLMKNSHNNRNKIRELVQLQNNLKIGDELDKIMGCIDTAEQEIRSAAFFFDEAKESLKEGIIKRLEKSKNRAASQLSKKALNRAEDALRCLENYSSKKGEAIGRRSFIKEVVEQAKNALSKS |  | 2 |
